Laboratory results: paper PMC11090809

Molecular target: empty AAVHSC-15 capsid (OXBS1-E fraction of AAV-OXBS1) (AAVHSC-15 (Clade F adeno-associated virus))
Test: charge detection mass spectrometry (CDMS); OXBS1-E fraction sprayed into a CDMS instrument (Megadalton Solutions); single ions trapped, charge detected, masses calculated; n = 1

## empty AAVHSC-15 capsid (OXBS1-E fraction of AAV-OXBS1) (complex)
  % relative abundance of the dimer peak: 20%
  stoichiometry N: 2
